Measurements as given in US20120301394A1 (published 2012).
Numbering of substitutions follows the chain as printed.

T1: Recombinant mouse MMR (R&D systems) (mouse, UniProt Q61830 20-1388)
T1 construct: Bought recombinant extracellular portion of mouse MMR with a C-terminal His tag; It was immobilized on the CM5 chip for SPR and coated on plates for PE-ELISA; The SPR methods say only 'MMR'; also called mMMR; recombinant MMR
T1 sequence: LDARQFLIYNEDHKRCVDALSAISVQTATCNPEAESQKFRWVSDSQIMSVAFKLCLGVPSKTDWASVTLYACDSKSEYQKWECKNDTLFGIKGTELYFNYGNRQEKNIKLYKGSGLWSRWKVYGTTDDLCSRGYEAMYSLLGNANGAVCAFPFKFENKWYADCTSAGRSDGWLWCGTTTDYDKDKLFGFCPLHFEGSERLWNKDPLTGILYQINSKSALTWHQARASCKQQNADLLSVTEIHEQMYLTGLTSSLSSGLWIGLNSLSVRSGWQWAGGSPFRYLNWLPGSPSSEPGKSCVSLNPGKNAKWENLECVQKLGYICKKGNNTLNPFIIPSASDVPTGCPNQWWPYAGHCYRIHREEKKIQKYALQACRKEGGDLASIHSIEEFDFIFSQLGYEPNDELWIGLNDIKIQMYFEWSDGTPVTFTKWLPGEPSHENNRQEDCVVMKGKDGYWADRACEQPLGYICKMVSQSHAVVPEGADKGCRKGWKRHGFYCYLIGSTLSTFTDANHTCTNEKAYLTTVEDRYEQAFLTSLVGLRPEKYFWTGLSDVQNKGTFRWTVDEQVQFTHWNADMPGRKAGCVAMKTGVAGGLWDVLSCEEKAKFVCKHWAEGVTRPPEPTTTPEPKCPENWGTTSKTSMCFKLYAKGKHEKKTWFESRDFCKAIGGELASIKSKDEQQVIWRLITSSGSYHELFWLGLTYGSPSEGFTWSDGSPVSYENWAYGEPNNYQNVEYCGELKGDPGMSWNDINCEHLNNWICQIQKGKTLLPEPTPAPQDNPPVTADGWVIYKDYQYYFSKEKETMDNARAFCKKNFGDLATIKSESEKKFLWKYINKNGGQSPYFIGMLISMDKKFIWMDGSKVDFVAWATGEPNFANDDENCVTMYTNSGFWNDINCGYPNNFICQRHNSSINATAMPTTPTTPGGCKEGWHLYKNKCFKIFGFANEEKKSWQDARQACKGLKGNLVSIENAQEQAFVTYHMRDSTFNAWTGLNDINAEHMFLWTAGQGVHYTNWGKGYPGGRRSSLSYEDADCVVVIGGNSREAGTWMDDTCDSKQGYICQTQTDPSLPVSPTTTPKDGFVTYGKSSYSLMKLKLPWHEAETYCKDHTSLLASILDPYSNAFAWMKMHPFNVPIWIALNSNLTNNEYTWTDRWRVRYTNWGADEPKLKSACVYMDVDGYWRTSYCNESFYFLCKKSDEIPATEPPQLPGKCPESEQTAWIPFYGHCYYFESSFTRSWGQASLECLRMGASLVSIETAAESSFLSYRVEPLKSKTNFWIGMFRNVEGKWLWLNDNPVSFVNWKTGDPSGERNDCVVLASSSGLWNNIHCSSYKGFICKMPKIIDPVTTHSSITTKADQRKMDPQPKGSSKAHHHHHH

T2: Recombinant human MMR (R&D systems) (human, UniProt P22897 19-1383)
T2 construct: Bought protein (R&D Systems #2534) coated on ELISA plates; also called hMMR; MRC1
T2 sequence: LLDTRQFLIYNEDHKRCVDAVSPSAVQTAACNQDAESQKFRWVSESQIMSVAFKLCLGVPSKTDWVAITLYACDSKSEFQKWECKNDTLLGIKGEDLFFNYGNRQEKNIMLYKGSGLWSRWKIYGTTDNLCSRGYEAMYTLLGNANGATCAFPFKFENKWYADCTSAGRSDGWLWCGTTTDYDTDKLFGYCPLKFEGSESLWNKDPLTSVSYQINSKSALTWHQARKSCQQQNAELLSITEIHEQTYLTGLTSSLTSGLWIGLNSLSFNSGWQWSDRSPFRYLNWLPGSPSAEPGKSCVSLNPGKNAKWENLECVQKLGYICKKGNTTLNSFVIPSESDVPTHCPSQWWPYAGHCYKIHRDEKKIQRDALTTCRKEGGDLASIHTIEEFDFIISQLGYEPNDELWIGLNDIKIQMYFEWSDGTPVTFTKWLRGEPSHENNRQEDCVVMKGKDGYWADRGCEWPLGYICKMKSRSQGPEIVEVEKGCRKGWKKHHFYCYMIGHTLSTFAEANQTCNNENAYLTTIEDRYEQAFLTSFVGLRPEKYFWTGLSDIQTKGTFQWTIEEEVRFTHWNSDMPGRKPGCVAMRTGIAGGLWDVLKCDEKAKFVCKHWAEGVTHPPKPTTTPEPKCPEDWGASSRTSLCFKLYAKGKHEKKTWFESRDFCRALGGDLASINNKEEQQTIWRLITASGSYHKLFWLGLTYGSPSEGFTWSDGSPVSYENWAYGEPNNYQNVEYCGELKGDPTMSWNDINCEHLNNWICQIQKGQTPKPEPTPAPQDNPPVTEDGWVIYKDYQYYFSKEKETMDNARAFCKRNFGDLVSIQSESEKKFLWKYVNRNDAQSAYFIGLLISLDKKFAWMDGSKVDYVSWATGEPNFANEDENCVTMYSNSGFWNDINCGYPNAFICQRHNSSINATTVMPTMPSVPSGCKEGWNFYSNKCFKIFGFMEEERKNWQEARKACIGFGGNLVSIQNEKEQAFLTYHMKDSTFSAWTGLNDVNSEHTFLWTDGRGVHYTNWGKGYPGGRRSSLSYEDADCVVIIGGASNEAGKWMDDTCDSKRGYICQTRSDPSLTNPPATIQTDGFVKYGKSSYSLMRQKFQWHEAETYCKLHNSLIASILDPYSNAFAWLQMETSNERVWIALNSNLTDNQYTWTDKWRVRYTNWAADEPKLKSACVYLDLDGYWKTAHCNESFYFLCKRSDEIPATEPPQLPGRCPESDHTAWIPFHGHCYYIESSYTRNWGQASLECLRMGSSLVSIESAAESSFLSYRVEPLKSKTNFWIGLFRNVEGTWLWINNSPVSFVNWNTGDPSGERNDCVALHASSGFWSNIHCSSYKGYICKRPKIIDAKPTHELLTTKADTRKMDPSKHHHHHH

B1: NbhmMMRm10.79 (VHH)
VHH: QVQLQESGGGLVQPGGSLKLSCAASGSIFSIKTMGWYRQAPGKQRELVAAVSSGGSTNYADSVKGRFTISRDNAKNAVYLQMNSLKPEDTAVYYCNADGVVAWDQPYDNYWGQGTQVTVSS
notes: Tested as a periplasmic extract in PE-ELISA
B2: NbhmMMRm3.49 (VHH)
VHH: QVQLQESGGGLVQPGGSLRLSCAASGFSLDYYAIGWFRQAPGKEREGISCISYKGGSTTYADSVKGRFTISKDNAKNTAYLQMNSLKPEDTGIYSCAAGFVCYNYDYWGQGTQVTVSS
notes: as for B1
B3: NbhmMMRm15.49 (VHH)
VHH: QVQLQESGGGLVQAGGSLRLSCAASGSTFSINNMGWYRQAPGKQRELVAGITGGNTHYADSVKGRFTISRDNAKNTMYLQMNSLKPEDTAVYYCNANWGAYWGQGTQVTVSS
notes: as for B1
B4: NbhmMMRm14.4 (VHH)
VHH: QVQLQESGGGLVQAGDSLRLSCAASGRTFSINYMGWYRQAPGKQRELVAAITSGSGSTNYADSVKGRFTISRDNAKNTMYLQMNSLKPEDTAVYYCNADMDSSLSGGYVDVWGQGTQVTVSS
notes: as for B1
B5: NbhmMMRm14.93 (VHH)
VHH: B4 VHH with N77K
notes: as for B1
B6: NbhmMMRm6.71 (VHH)
VHH: QVQLQESGGGLVQAGGSLRLSCAASGGTFDDSVIGWFRQAPGKEREGVSCISSNDGTTHYASPVKGRFTISSDNAKNTVYLQMNSLKPEDTAVYYCAAETPSIGSPCTSASYDYWGQGTQVTVSS
notes: as for B1
B7: NbhmMMRm24.31 (VHH)
VHH: QVQLQESGGGLVQPGGSLRLSCTATGFTLKNHHIGWLRQAPGKEREGVASINSSGGSTNYADSVQGRFTISRDNAKNTVFLQMNSLKSEDTAVYYCARLRRYYGLNLDPGSYDYWGQGTQVTVSS
notes: as for B1
B8: NbhmMMRm20.52 (VHH)
VHH: QVQLQESGGGLVQAGGSLRLSCAASGRIFSAYAMGWFRQAPGKEREFVAAISRSGDSTDYADSVKGRFTISRDSAKNMVYLQMNSLKPEDTALYHCAARTVSAPPSAAWGYGYWGQGTQVTVSS
notes: as for B1
B9: NbhmMMRm22.84 (VHH)
VHH: QVQLQESGGGLVQPGGSLRLSCAASGRTFSNYVNYAMGWFRQFPGKEREFVASISWSSVTTYYADSVKGRFTISRDNAKNTVYLQMNSLKPEDTAVYYCAAHLAQYSDYAYRDPHQFGAWGQGTQVTVSS
notes: as for B1
B10: NbhmMMRm19.52 (VHH)
VHH: QVQLQESGGGLVQAGGSLRLSCLASGDTFSNYVMAWFRQAPGKEREIVAAIRLSGARYVPDSVKGRFTISRDNAKNAMYLQMTSLKPEDTARYYCAAGHTWGQYAYWGQGTQVTVSS
notes: as for B1
B11: NbhmMMRm17.72 (VHH)
VHH: QVQLQESGGGLVQPGGSLRLSCAASGSIVSINAMGWYRQAPGKQRELVALVTGSGRTNLADSVKGRFTISRDNAKNTVYLQMNSLKPEDTAVYYCNVLVIGPLEGYDYWGQGTQVTVSS
notes: as for B1
B12: NbhMMRm1.33 (VHH)
VHH: QVQLQESGGGLVQPGGSLRLSCAASGFTLDNYTVAWFRQAPGKEREGVSCISSSGGSTNYADSVKGRFTISRDNSKKSVYLQMNSLKPEDTAIYTCAAERAPPYYSGYYFFDSTCVAASYDYWGQGTQVTVSS
notes: as for B1
B13: NbhMMRm10.19 (VHH)
VHH: B1 VHH with V51I, S52T, A77T
notes: as for B1
B14: NbhMMRm2.15 (VHH)
VHH: QVQLQESGGGLVQPGESLRLSCKLSGFTLDYYDIGWFRQAPGKEREGVSCISSIGGSANYADSVKGRFTISRDNVKNTVYLQMNSLKPEDTAIYYCAAEAQTPYNDGDCTRASYDYWGQGIQVTVSS
notes: as for B1
B15: NbhMMRm3.1 (VHH)
VHH: B2 VHH with S28T, S85N, S95Y, Q110P
notes: as for B1
B16: NbhMMRm5.38 (VHH)
VHH: QVQLQESGGGLVQAGGSLRLSCAASGFTDDDYDIGWFRQAPGKEREGVSCISSSDGSTYYADSVKGRFTISSDNAKNTVYLQMNSLKPEDTAVYYCAADFFRWDSGSYYVRGCRHATYDYWGQGTQVTVSS
notes: as for B1
B17: NbhMMRm12.6 (VHH)
VHH: QVQLQESGGGLVQPGGSLRLSCVVSGSFLSINHMGWYRQVSGEQRELVAAITSGGSTNYADSVKGRFTISRDSAKNTVYLQMNSLKPEDTAVYYCNADALTMLPPFDFWGQGTQVTVSS
notes: as for B1

Biological target: T1, Recombinant mouse MMR (R&D systems)
Experiment: PE-ELISA, periplasmic extract on coated mouse MMR

Binding result, binds:
B1
B2
B3
B4
B5
B6
B7
B8
B9
B10
B11

Biological target: T2, Recombinant human MMR (R&D systems)
Experiment: PE-ELISA, periplasmic extract on coated human MMR, OD405 at least 3x over milk-blocking proteins

Binding result, binds:
B12
B13
B14
B15
B16
B17

Biological target: T2, Recombinant human MMR (R&D systems)
Experiment: PE-ELISA, periplasmic extract on coated human MMR

Binding result, binds:
B1
B2
B3
B4
B5
B6
B7
B8
B9
B10
B11
